US20110256132A1 (published 2011)

Biological target: T1, mature myostatin (recombinant, dimeric) (mouse polyprotein used for in-house …, UniProt O08689 268-376)
T1 construct: also called GDF-8; recombinant myostatin
T1 sequence: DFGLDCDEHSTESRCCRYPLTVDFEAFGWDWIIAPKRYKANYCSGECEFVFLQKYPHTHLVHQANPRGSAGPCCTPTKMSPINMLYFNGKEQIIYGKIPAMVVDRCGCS
Assay: ELISA, plate-coated myostatin (R&D Systems), mean EC50
Protocol: 10B3 and 10B3 chimera (10B3C) bound myostatin (R&D Systems, 788-G8-010/CF) in a sandwich ELISA. Plates were coated with myostatin at 10 ng/well and blocked with Block solution (PBS, 0.1% TWEEN and 1% BSA). Following washing (PBS, 0.1% TWEEN), antibody was incubated at 37° C. for 2 hours over a dilution series and plates washed again prior to incubation at 37° C. for 1 hour with anti-mouse HRP or anti-human HRP (Dako, P0161 & Sigma, A-8400, respectively). Plates were again washed and OPD substrate (Sigma, P9187) added until colourometric reaction occurred and the reaction stopped by the addition of H₂SO₄.

EC50: 0.069 µg/mL
B1: mouse monoclonal antibody 10B3 (antibody, V domains shown)
VH: EVQLQQSGPELVKPGASVKISCKASGYSFTGYFMHWVKQSHGNILDWIGNIYPYNGVSNYNQRFKAKATLTVDKSSSTAYMELRSLTSEDSAVYYCARRYYYGTGPADWYFDVWGTGTTVTVSS
VL: DIKMTQSPSSMYASLRERVTITCKASQDINSYLSWFQQKPGKSPKTLIYRANRLVDGVPSRFSGSGSGQDYSLTISSLEYEDMGIYYCLQCDEFPLTFGAGTKLELK
notes: Mouse IgG2a/kappa from hybridoma; also called 10B3 mouse parental; 10B3 parental
